Reference: patent US20120021972A1 (CADILA HEALTHCARE, published 2012)
Starred links: 1 amine or outer side, 2 acyl side, 3 side chain; linkers in the order of their positions; H or OH if unused. Non-standard residues stand in square brackets, D forms with d. No end group written: not given here. *: point of attachment. NMe2F‑APPA = N-methyl-2-amino-5-(2-fluorophenyl)pentanoic acid, CN([C@@H](CCCc1ccccc1F)C(=O)[*:2])[*:1]; 2,4‑diF‑APPA = 2-amino-5-(2,4-difluorophenyl)pentanoic acid, O=C([C@H](CCCc1ccc(F)cc1F)N[*:1])[*:2]; AMCB = 2-amino-5-(4-chloro-2-methylphenyl)pentanoic acid, Cc1cc(Cl)ccc1CCC[C@H](N[*:1])C(=O)[*:2]; ACPP = 2-amino-5-(3-chlorophenyl)pentanoic acid, O=C([C@H](CCCc1cccc(Cl)c1)N[*:1])[*:2]; 2CF3,4F‑APPA = 2-amino-5-(4-fluoro-2-(trifluoromethyl)phenyl)pentanoic acid; 2F,4CF3‑APPA = 2-amino-5-(2-fluoro-4-(trifluoromethyl)phenyl)pentanoic acid; 2Cl,4OMe‑APPA = 2-amino-5-(2-chloro-4-methoxyphenyl)pentanoic acid; 2CF3‑APPA = 2-amino-5-(2-(trifluoromethyl)phenyl)pentanoic acid; Bip(2'-Et-4'-OMe) = CCc1cc(OC)ccc1-c1ccc(C[C@H](N)C(=O)O)cc1; Leu(5,5,5,5',5',5'-F6) = N[C@@H](CC(C(F)(F)F)C(F)(F)F)C(=O)O; Nva(5-(3,5-Me2Ph)) = Cc1cc(C)cc(CCC[C@H](N)C(=O)O)c1; 2Cl‑APPA = 2-amino-5-(2-chlorophenyl)pentanoic acid; 2F‑APPA = 2-amino-5-(2-fluorophenyl)pentanoic acid; αMePhe(2-F) = C[C@](N)(Cc1ccccc1F)C(=O)O; Phe(2-F) = N[C@@H](Cc1ccccc1F)C(=O)O; NMeBip(OMe) = N-methylated Bip(OMe); hhPhe = N[C@@H](CCCc1ccccc1)C(=O)O; αMeF = C[C@](N)(Cc1ccccc1)C(=O)O; NMeD = CN[C@@H](CC(=O)O)C(=O)O; aThr = C[C@H](O)[C@H](N)C(=O)O; NMeAPPA = not defined here; CNB = not defined here; Aib = CC(C)(N)C(=O)O; Moc = COC(=O)*

Assays:
[1] = target: human GLP-1 receptor (human, UniProt P43220 24-463); assay: cell-based or functional assay
[2] = target: human glucagon receptor (human, UniProt P47871 26-477); assay: cell-based or functional assay

Sequence of human GLP-1 receptor (P43220 24-463): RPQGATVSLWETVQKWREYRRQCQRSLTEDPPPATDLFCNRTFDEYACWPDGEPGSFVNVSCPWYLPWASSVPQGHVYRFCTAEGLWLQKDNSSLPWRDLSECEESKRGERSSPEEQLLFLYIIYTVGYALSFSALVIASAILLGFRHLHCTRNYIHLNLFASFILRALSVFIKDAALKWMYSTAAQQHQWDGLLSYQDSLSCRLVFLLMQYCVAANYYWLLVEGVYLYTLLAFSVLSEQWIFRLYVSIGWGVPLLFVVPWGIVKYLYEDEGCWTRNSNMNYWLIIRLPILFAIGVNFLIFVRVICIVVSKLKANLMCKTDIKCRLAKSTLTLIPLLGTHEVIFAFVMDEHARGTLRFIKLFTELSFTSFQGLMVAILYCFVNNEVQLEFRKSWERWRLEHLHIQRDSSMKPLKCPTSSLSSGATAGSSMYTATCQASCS

Row | Binder | cAMP release, % activity, 1 nM [1] | cAMP release, % activity, 10 nM [1] | cAMP release, % activity, 100 nM [1] | cAMP release, % activity, 1 µM [1] | cAMP release, % activity, 10 µM [1] | inhibition of cAMP production, 1 nM [2] | inhibition of cAMP production, 10 nM [2] | inhibition of cAMP production, 100 nM [2] | inhibition of cAMP production, 1 µM [2] | inhibition of cAMP production, 10 µM [2]
1 | Moc-H[Aib]QG[aThr][αMePhe(2-F)][aThr]SD[Bip(2'-Et-4'-OMe)][hhPhe] (also: reduced (CH2) bonds between 9-10 and 10-11) [Seq. ID. No. 198: CH3OCO-H-Aib-QG-T(allo)-(α-Me-2F-Phe)-T(allo)-SD-(CH2)-Bip(OMe)-(CH2)-(APPA)] | 82% | 87% | 92% | 99% | 99% | – | – | – | – | –
2 | H[Aib][CNB]G[aThr][αMePhe(2-F)][aThr]SD[Bip(2'-Et-4'-OMe)][2F‑APPA] (reading uncertain; also: thioamide bonds between residues 9-10 and 10-11) [Seq. ID. No. 180: H-Aib-(CNB)-G-T(allo)-(α-Me-2F-Phe)-T(allo)-SD-(C═S)-Bip(OMe)-(C═S)-(2F-APPA)] | 40% | 81% | 89% | 96% | 99% | – | – | – | – | –
3 | H[Aib]QGTFTSD[Bip(2'-Et-4'-OMe)][2,4‑diF‑APPA] [Seq. ID. No. 62: H-Aib-QGTFTSD-Bip(OMe)-(2,4-diF-APPA)] | 38% | 78% | 86% | 95% | 98% | – | – | – | – | –
4 | H[Aib]QG[aThr][αMePhe(2-F)][aThr]SD[Bip(2'-Et-4'-OMe)][2F‑APPA] (also: reduced (CH2) bonds Z9-Z10 and Z10-Z11) [Seq. ID. No. 203: H-Aib-QG-T(allo)-(α-Me-2F-Phe)-T(allo)-SD-(CH2)-Bip(OMe)-(CH2)-(2F-APPA)] | 86% | 99% | 99% | 99% | 99% | – | – | – | – | –
5 | H[Aib][CNB]GTFTSD[Bip(2'-Et-4'-OMe)][2F,4CF3‑APPA] (reading uncertain) [Seq. ID. No. 81: H-Aib-(CNB)-GTFTSD-Bip(OMe)-(2F, 4CF3-APPA)] | 69% | 98% | 99% | 99% | 99% | – | – | – | – | –
6 | H[Aib][CNB]GTFTSD[Bip(2'-Et-4'-OMe)][2Cl‑APPA] (reading uncertain) [Seq. ID. No. 82: H-Aib-(CNB)-GTFTSD-Bip(OMe)-(2Cl-APPA)] | 78% | 99% | 99% | 99% | 99% | – | – | – | – | –
7 | HAQGTFTSD[Bip(2'-Et-4'-OMe)][AMCB] [Seq. ID. No. 16: HAQGTFTSD-Bip(OMe)-(AMCB)] | 99% | 99% | 99% | 99% | 99% | – | – | – | – | –
8 | H[Aib][Leu(5,5,5,5',5',5'-F6)]G[aThr][αMePhe(2-F)][aThr]SD[Bip(2'-Et-4'-OMe)][2F‑APPA] (also: thioamide (C═S) bonds Z9-Z10 and Z10-Z11) [Seq. ID. No. 216: H-Aib-(Hfl)-G-T(allo)-(α-Me-2F-Phe)-T(allo)-SD-(C═S)-Bip(OMe)-(C═S)-(2F-APPA)] | 93% | 99% | 99% | 99% | 99% | – | – | – | – | –
9 | H[Aib]QGTFTSD[Bip(2'-Et-4'-OMe)][2Cl,4OMe‑APPA] [Seq. ID. No. 68: H-Aib-QGTFTSD-Bip(OMe)-(2Cl, 4OMe-APPA)] | 39% | 80% | 88% | 96% | 99% | – | – | – | – | –
10 | Moc-H[Aib]QG[aThr][αMePhe(2-F)][aThr]SD[NMeBip(OMe)][NMe2F‑APPA] [Seq. ID. No. 140: CH3OCO-H-Aib-QG-T(allo)-(α-Me-2F-Phe)-T(allo)-SD-((NMe)Bip(OMe))-((NMe)(2F-APPA))] | 51% | 86% | 91% | 99% | 99% | – | – | – | – | –
11 | H[Aib]QGT[Phe(2-F)]TSD[Bip(2'-Et-4'-OMe)][Nva(5-(3,5-Me2Ph))] [Seq. ID. No. 42: H-Aib-QGT-(2F-Phe)-TSD-Bip(OMe)-(ADMP)] | 39% | 81% | 89% | 96% | 99% | – | – | – | – | –
12 | H[Aib][CNB]G[aThr][αMePhe(2-F)][aThr]SD[Bip(2'-Et-4'-OMe)][hhPhe] (reading uncertain; also: reduced (CH2) bond between 10 and 11) [Seq. ID. No. 190: H-Aib-(CNB)-G-T(allo)-(α-Me-2F-Phe)-T(allo)-SD-Bip(OMe)-(CH2)-(APPA)] | 41% | 82% | 87% | 95% | 98% | – | – | – | – | –
13 | HSQGTFTSD[Bip(2'-Et-4'-OMe)][2Cl‑APPA] [Seq. ID. No. 50: HSQGTFTSD-Bip(OMe)-(2Cl-APPA)] | 60% | 92% | 98% | 99% | 99% | – | – | – | – | –
14 | H[Aib][Leu(5,5,5,5',5',5'-F6)]G[aThr][αMePhe(2-F)][aThr]S[NMeD][NMeBip(OMe)][NMeAPPA] (reading uncertain) [Seq. ID. No. 220: H-Aib-(Hfl)-G-T(allo)-(α-Me-2F-Phe)-T(allo)-S-(NMe)D-((NMe)Bip(OMe))-((NMe)(APPA))] | 93% | 99% | 99% | 99% | 99% | – | – | – | – | –
15 | H[Aib][CNB]GTFTSD[Bip(2'-Et-4'-OMe)][2CF3,4F‑APPA] (reading uncertain) [Seq. ID. No. 80: H-Aib-(CNB)-GTFTSD-Bip(OMe)-(2CF3, 4F-APPA)] | 66% | 97% | 99% | 99% | 99% | – | – | – | – | –
16 | H[Aib]QGT[αMePhe(2-F)]TSD[Bip(2'-Et-4'-OMe)][ACPP] [Seq. ID. No. 39: H-Aib-QGT-(α-Me-2F-Phe)-TSD-Bip(OMe)-(ACPP)] | 40% | 81% | 87% | 95% | 98% | – | – | – | – | –
17 | Moc-H[Aib]QGT[αMePhe(2-F)]TSD[Bip(2'-Et-4'-OMe)][2F‑APPA] (also: reduced (CH2) bonds between 9-10 and 10-11) [Seq. ID. No. 196: CH3OCO-H-Aib-QGT-(α-Me-2F-Phe)-TSD-(CH2)-BiP(OMe)-(CH2)-(2F-APPA)] | 39% | 81% | 89% | 96% | 99% | – | – | – | – | –
18 | H[Aib][Leu(5,5,5,5',5',5'-F6)]GT[αMePhe(2-F)][aThr]SD[Bip(2'-Et-4'-OMe)][2F‑APPA] [Seq. ID. No. 224: H-Aib-(Hfl)-GT-(α-Me-2F-Phe)-T(allo)-SD-Bip(OMe)-(2F-APPA)] | 99% | 99% | 99% | 99% | 99% | – | – | – | – | –
19 | H[Aib][Leu(5,5,5,5',5',5'-F6)]GT[αMeF]TSD[Bip(2'-Et-4'-OMe)][hhPhe] [Seq. ID. No. 230: H-Aib-(Hfl)-GT-(α-Me-Phe)-TSD-Bip(OMe)-(APPA)] | 99% | 99% | 99% | 99% | 99% | – | – | – | – | –
20 | H[Aib][Leu(5,5,5,5',5',5'-F6)]GT[αMePhe(2-F)][aThr]SD[Bip(2'-Et-4'-OMe)][hhPhe] [Seq. ID. No. 225: H-Aib-(Hfl)-GT-(α-Me-2F-Phe)-T(allo)-SD-Bip(OMe)-(APPA)] | – | – | – | – | – | 5 pmol/ml/µg prt | 2 pmol/ml/µg prt | 0 pmol/ml/µg prt | 0 pmol/ml/µg prt | 0 pmol/ml/µg prt
21 | H[Aib][Leu(5,5,5,5',5',5'-F6)]GT[αMePhe(2-F)]TSD[Bip(2'-Et-4'-OMe)][Nva(5-(3,5-Me2Ph))] [Seq. ID. No. 235: H-Aib-(Hfl)-GT-(α-Me-2F-Phe)-TSD-Bip(OMe)-(ADMP)] | 99% | 99% | 99% | 99% | 99% | – | – | – | – | –
22 | HSQGTFTSD[Bip(2'-Et-4'-OMe)][2CF3‑APPA] [Seq. ID. No. 47: HSQGTFTSD-Bip(OMe)-(2CF3-APPA)] | 55% | 89% | 93% | 99% | 99% | – | – | – | – | –
23 | Ac-H[Aib]QG[aThr][αMePhe(2-F)][aThr]SD[Bip(2'-Et-4'-OMe)][hhPhe] (also: reduced (CH2) bond between 10 and 11) [Seq. ID. No. 185: CH3CO-H-Aib-QG-T(allo)-(α-Me-2F-Phe)-T(allo)-SD-Bip(OMe)-(CH2)-(APPA)] | 46% | 85% | 90% | 99% | 99% | – | – | – | – | –
24 | Ac-H[Aib]QG[aThr][αMePhe(2-F)][aThr]SD[Bip(2'-Et-4'-OMe)][hhPhe] [Seq. ID. No. 101: CH3CO-H-Aib-QG-T(allo)-(α-Me-2F-Phe)-T(allo)-SD-Bip(OMe)-(APPA)] | 41% | 82% | 87% | 95% | 98% | – | – | – | – | –
25 | Ac-H[Aib][Leu(5,5,5,5',5',5'-F6)]GT[αMePhe(2-F)]TSD[Bip(2'-Et-4'-OMe)][hhPhe] [Seq. ID. No. 210: CH3CO-H-Aib-(Hfl)-GT-(α-Me-2F-Phe)-TSD-Bip(OMe)-(APPA)] | 46% | 85% | 90% | 99% | 99% | – | – | – | – | –
26 | H[Aib][CNB]GTFTSD[Bip(2'-Et-4'-OMe)][AMCB] (reading uncertain) [Seq. ID. No. 32: H-Aib-(CNB)-GTFTSD-Bip(OMe)-(AMCB)] | 39% | 80% | 88% | 96% | 99% | – | – | – | – | –
